The target in data set [1] is SNO-SP-D in BAL from mice overexpressing SP-D, after treatment with S-nitrosocysteine (not stated (in BAL of SP-D overexpressing mice)) (UniProt P50404). Put plainly: SEC; BAL from SP-D overexpressing mice with or without SNOC, 0.75 mg total protein in 250 μl; Superdex 200 HR 10/30, 0.3 ml/min, 25 mM HEPES pH 7.25, 150 mM NaCl; fractions analysed by SDS-PAGE and Western blot for SP-D.

Data set [2] deals with the molecule itself. Put plainly: non-reducing SDS-PAGE with Western blot; recombinant proteins denatured without thiol reductant, SDS-PAGE, Western blot with SP-D antibody; shows only oligomers that survive SDS (disulfide-linked). In general terms: A western blot detects proteins with antibodies after separation by electrophoresis.

The values below come from article PMC2581630, “S-Nitrosylation of Surfactant Protein-D Controls Inflammatory Function” (PLoS Biology, 2008).

As a reminder, the stoichiometry N is the number of molecules, sites or subunits per partner or assembly.

Take “SNO-SP-D in BAL from mice overexpressing SP-D, after treatment with S-nitrosocysteine (from UniProt P50404 20-374) (natural protein)”: the stoichiometry N in data set [1] worked out at 3.

B1: rat recombinant SP-D (surfactant protein D) (natural protein, UniProt P35248 20-374, looked up)
chain: AEMKTLSQRSITNTCTLVLCSPTENGLPGRDGRDGREGPRGEKGDPGLPGPMGLSGLPGPRGPVGPKGENGSAGEPGPKGERGLVGPPGSPGISGPAGKEGPSGKQGNIGPQGKPGPKGEAGPKGEVGAPGMQGSAGAKGPAGPKGERGAPGEQGAPGNAGAAGPAGPAGPQGAPGSRGPPGLKGDRGAPGDRGIKGESGLPDSAALRQQMEALNGKLQRLEAAFSRYKKAALFPDGQSVGDKIFRAANSEEPFEDAKEMCRQAGGQLASPRSATENAAVQQLVTAHSKAAFLSMTDVGTEGKFTYPTGEALVYSNWAPGEPNNNGGAENCVEIFTNGQWNDKACGEQRLVICEF
notes: surfactant protein D (SP-D), rat, recombinant; It has the N-terminal cysteines 15 and 20 and the head domain, so it is probably the whole mature chain; also called rSP-D; RrSP-D; source: recombinant
For the molecule B1, the “stoichiometry N” value in data set [2] stood at 3.
